{
  "source": "patent US20090186027A1",
  "about": "(RAMOT AT TEL AVIV UNIVERSITY, published 2009)",
  "target": "T1, β-amyloid peptide 1-40 (UniProt P05067 672-711)",
  "T1 construct": "domain: beta amyloid peptide 1-40; Residues 1-40 are counted on Aβ, not on the APP entry; Coated after overnight incubation at 37 C (ELISA) or pre-aggregated for a week (ThT assay); also called Aβp 1-40; AβP 1-40",
  "experiment": "ELISA, constant 10 µM Aβ 1-40 coated, 3.125-25 µM antibody; reference 37L",
  "protocol": "Wells were washed and blocked with 3% milk powder in PBS for 1 hr at 37° C. […] The rest of the ELISA assay was performed as described above.",
  "data": [
    {"binder": "37H (single domain antibody, heavy chain variable domain of scFv RCK37) (other, also called 37H nanobody; nanobody 37H; not shown: C-terminal His tag from the pET28/pET21 vector) VH: MAHVQFVQSGGDLVKPGGSLKLSCAASGFTFSSYGMSWVRQTPDKRLEWVATISSGGSYTYYPDSVKGRFTISRDNAKNTLYLQMSSLKSEDTAMYYCARHNYGSSYPYAMDYWGQGTPVTVSA", "values": [
      {"measurement": "fold stronger binding than 37L", "result": 5, "unit": "times"}
    ]}
  ]
}
